We go through 23 molecules from US9029508 (dated 2015).

The EC50 is the concentration giving half of the maximal effect. High values mean a need for much substance, low ones an effect from little substance.

To fix the notation:
B1: DVD465 DLL4 arm (antibody)
chain 1: EVQLVESGGGLVQPGGSLRLSCAASGFTFTDNWISWVRQAPGKGLEWVGYISPNSGFTYYADSVKGRFTISADTSKNTAYLQMNSLRAEDTAVYYCARDNFGGYFDYWGQGTLVTVSS
chain 2: DIQMTQSPSSLSASVGDRVTITCRASQDVSTAVAWYQQKPGKAPKLLIYSASFLYSGVPSRFSGSGSGTDFTLTISSLQPEDFATTYYCQQSYTGTVTFGQGTKVEIKR
modifications: DVD-Ig outer
B2: DVD480 DLL4 arm (antibody)
chain 1: B1 chain 1
chain 2: B1 chain 2
modifications: DVD-Ig inner
B3: DVD483 DLL4 arm (antibody)
chain 1: B1 chain 1
chain 2: B1 chain 2
modifications: DVD-Ig outer
B4: DVD466 DLL4 arm (antibody)
chain 1: B1 chain 1
chain 2: B1 chain 2
modifications: DVD-Ig inner
B5: DVD469 DLL4 arm (antibody)
chain 1: B1 chain 1
chain 2: B1 chain 2
modifications: DVD-Ig outer
B6: DVD471 DLL4 arm (antibody)
chain 1: B1 chain 1
chain 2: B1 chain 2
modifications: DVD-Ig outer
B7: DVD449 DLL4 arm (antibody, V domains shown)
VH: QVQLVQSGAEVKKPGASVKISCKASGYSFTAYYIHWVKQAPGQGLEWIGYISSYNGATNYNQKFKGRVTFTTDTSTSTAYMELRSLRSDDTAVYYCARDYDYDVGMDYWGQGTLVTVSS
VL: DIVMTQSPDSLAVSLGERATISCRASESVDNYGISFMKWFQQKPGQPPKLLIYAASNQGSGVPDRFSGSGSGTDFTLTISSLQAEDVAVYYCQQSKEVPWTFGGGTKVEIKR
modifications: DVD-Ig outer
B8: DVD441 DLL4 arm (antibody, V domains shown)
VH: B7 VH
VL: B7 VL
modifications: DVD-Ig outer
B9: DVD442 DLL4 arm (antibody, V domains shown)
VH: B7 VH
VL: B7 VL
modifications: DVD-Ig inner
B10: DVD462 DLL4 arm (antibody, V domains shown)
VH: B7 VH
VL: B7 VL
modifications: DVD-Ig inner
B11: DVD454 DLL4 arm (antibody, V domains shown)
VH: B7 VH
VL: B7 VL
modifications: DVD-Ig inner
B12: DVD493 DLL4 arm (antibody, V domains shown)
VH: EVQLQQSGPELVKPGASVKMSCKASGYTFTSYVINWVKQKPGQGLEWIGLINPYNDGTKYNEKFKVKATLTSDKSSSTAYMELSSLTSEDSAVYYCASYYYGSRYYFDYWGQGTTLTVSS
VL: DIQMTQSSSYLSVSLGGRVTITCKASDHINNWLAWYQQKPGNAPRLLISGATSLETGVPSRFSGSGSGKDYTLSITSLQTEDVATYYCQQYWSIPLTFGAGTKLELKR
modifications: DVD-Ig outer
B13: DVD510 DLL4 arm (antibody, V domains shown)
VH: B12 VH
VL: B12 VL
modifications: DVD-Ig inner
B14: DVD491 DLL4 arm (antibody, V domains shown)
VH: B12 VH
VL: B12 VL
modifications: DVD-Ig outer
B15: DVD504 DLL4 arm (antibody, V domains shown)
VH: B12 VH
VL: B12 VL
modifications: DVD-Ig inner
B16: DVD498 DLL4 arm (antibody, V domains shown)
VH: B12 VH
VL: B12 VL
modifications: DVD-Ig inner
B17: DVD505 DLL4 arm (antibody, V domains shown)
VH: B12 VH
VL: B12 VL
modifications: DVD-Ig outer
B18: DVD523 DLL4 arm (antibody, V domains shown)
VH: EVQLQQSGPELEKPGASVKISCKASGYSFTGYNMNWVKQSNGKSLEWIGNIDPYFGGTNYNQKFKGKATLTVDKSSSTAYMQLKSLTSEDSAVYYCARNYDYDGGCFDYWGQGTTLTVSS
VL: QAVVTQESALTTSPGETVTLTCRSSTGAVTTSNYANWVQEKPDHLFTGLIGGTNNRAPGVPARFSGSLIGDKAALTITGAQTEDEAIYFCALWYSNHWVFGGGTKLTVLG
modifications: DVD-Ig outer
B19: DVD511 DLL4 arm (antibody, V domains shown)
VH: B18 VH
VL: B18 VL
modifications: DVD-Ig outer
B20: DVD533 DLL4 arm (antibody, V domains shown)
VH: B18 VH
VL: B18 VL
modifications: DVD-Ig outer
B21: DVD525 DLL4 arm (antibody, V domains shown)
VH: B18 VH
VL: B18 VL
modifications: DVD-Ig outer
B22: DVD526 DLL4 arm (antibody, V domains shown)
VH: B18 VH
VL: B18 VL
modifications: DVD-Ig inner
B23: DVD532 DLL4 arm (antibody, V domains shown)
VH: B18 VH
VL: B18 VL
modifications: DVD-Ig inner

This assay deals with DLL4 (human, UniProt Q9NR61). The experiment in a line: ELISA. (An ELISA detects its analyte on a solid surface through an enzyme-linked reagent.)
DLL4, sequence (Q9NR61 27-524): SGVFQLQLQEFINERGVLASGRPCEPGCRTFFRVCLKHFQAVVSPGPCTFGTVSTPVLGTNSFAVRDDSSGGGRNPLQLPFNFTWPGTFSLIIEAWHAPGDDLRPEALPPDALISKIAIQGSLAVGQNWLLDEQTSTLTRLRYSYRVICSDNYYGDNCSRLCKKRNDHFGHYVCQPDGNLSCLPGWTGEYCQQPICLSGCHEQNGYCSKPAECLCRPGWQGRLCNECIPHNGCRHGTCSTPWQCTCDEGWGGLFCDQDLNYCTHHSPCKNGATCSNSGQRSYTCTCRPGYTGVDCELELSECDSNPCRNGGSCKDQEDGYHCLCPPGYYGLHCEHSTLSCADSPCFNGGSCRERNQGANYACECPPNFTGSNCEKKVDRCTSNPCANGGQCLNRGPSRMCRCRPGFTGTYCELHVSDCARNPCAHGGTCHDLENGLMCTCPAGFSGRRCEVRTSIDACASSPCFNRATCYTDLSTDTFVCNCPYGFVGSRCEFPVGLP
B1: the EC50 was 0.57 nM.
As for B2, it took 0.6 nM to reach a half-maximal effect (EC50).
The value for B3 was 0.63 nM; that for B4 was 19.8 nM; that for B5 was 2.78 nM.
Molecule B6 gave an EC50 of 0.89 nM.
The molecule B7 returned an EC50 of 0.36 nM.
Turning to B8, the EC50 is 0.04 nM.
B9 came in with a 50% effective concentration (EC50) of 10.6 nM. Against the preceding molecule, the EC50 is about 260-fold higher.
Turning to B10, the concentration giving a half-maximal response (EC50) was 7.99 nM.
As to B11, it took 1.01 nM to reach a half-maximal effect (EC50). Against the preceding molecule, the EC50 is about 7.9-fold lower.
The value for B12 was 0.06 nM; that for B13 was 0.42 nM.
The value for B14 was 0.39 nM; that for B15 was 0.53 nM; that for B16 was 0.45 nM.
B17 displayed an EC50 of 0.09 nM. Against the preceding molecule, the EC50 is about 5-fold lower.
B18: the EC50 came out at 0.09 nM.
The molecule B19 came in with a concentration for a half-maximal effect (EC50) of 0.1 nM. The EC50 values of the last two molecules are within 1.5-fold of each other.
Molecule B20 came in with a concentration giving a half-maximal response (EC50) of 0.25 nM.
B21 showed a concentration giving a half-maximal response (EC50) of 1 nM.
In turn, B22 showed a concentration giving a half-maximal response (EC50) of 1.57 nM.
B23 displayed an EC50 of 1.43 nM.
